According to US20250092424A1 (University of Washington, published 2025):

Molecular target: T1, design #8 (v-SNARE-like protein, v-SP; MPNN-redesigned VAMP2), SEQ ID NO: 8
T1 chain: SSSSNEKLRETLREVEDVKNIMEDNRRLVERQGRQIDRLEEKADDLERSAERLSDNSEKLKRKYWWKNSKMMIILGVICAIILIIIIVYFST
Assay: cell-based or functional assay

B1: design #94 (single-chain t-SNARE-like protein, sc-t-SP), SEQ ID NO: 94 (designed binder)
chain: SEREKEIDEGLDRVSEIVKELKKMAEEMRRMIEEQGRRIERIEEKAEEAKEKIEEANERAEKLLKDPGGSGGSEELKKLEKEGEKLKELVEELDREIKELKEGMERLREMFEEAAKLSEEALEIMRRTRKLSEEELEEAKQKAKEQEKEKALKEKGGSGGSGGSEKVKRELAQIEERHQQILELEEKIKELLEMFKELSEKIEEQGQKIDRIEDKVSKAKEHVEKGVEDTKKAVKYQSKARRKKIMIIICCVILGIVIASTVGGIFA
- cell-cell fusion assay (reporter luciferase), fold over parental SNARE complex: 10 fold
